This assay deals with lavanducyanin halogenase (LvcH) (Streptomyces sp. CNZ-289). Description: SEC.

In general, stoichiometry N refers to the number of molecules, sites or subunits per partner or assembly. Regarding “lavanducyanin halogenase (LvcH) (enzyme)”, the stoichiometry N amounted to 2.

The values are drawn from PMC11250029.
